{"source": "paper PMC9259494", "assay_in_all_cases": "cryo-EM structure; single-particle cryo-EM of the co-purified R388 T4SS complex (VirB3-VirB10); 50 mM HEPES pH 7.6, 200 mM sodium acetate, 0.1% digitonin, 0.05 mM TDAO; maps of O-layer, I-layer, stalk, IMC protomer near-atomic, arches from the 6.18 Å map", "key": {"[1]": {"target": "TrwJ/VirB5 (R388 T4SS) (plasmid R388)"}, "[2]": {"target": "TrwE/VirB10 with Strep tag (R388 T4SS) (plasmid R388)"}, "[3]": {"target": "TrwK/VirB4 (R388 T4SS) (plasmid R388)"}, "[4]": {"target": "TrwG/VirB8 (R388 T4SS) (plasmid R388)"}, "[5]": {"target": "TrwI/VirB6 (R388 T4SS) (plasmid R388)"}, "[6]": {"target": "TrwF/VirB9 (R388 T4SS) (plasmid R388)"}}}
{"substance": "TrwJ/VirB5 (R388 T4SS) (natural protein)", "values": [{"measurement": "stoichiometry N", "setting": "[1]", "result": 5}]}
{"substance": "TrwE/VirB10 with Strep tag (R388 T4SS) (natural protein)", "values": [{"measurement": "stoichiometry N", "setting": "[2]", "result": 14}]}
{"substance": "TrwK/VirB4 (R388 T4SS) (natural protein)", "values": [{"measurement": "stoichiometry N", "setting": "[3]", "result": 12}]}
{"substance": "TrwG/VirB8 (R388 T4SS) (natural protein)", "values": [{"measurement": "stoichiometry N", "setting": "[4]", "result": 18}]}
{"substance": "TrwI/VirB6 (R388 T4SS) (natural protein)", "values": [{"measurement": "stoichiometry N", "setting": "[5]", "result": 5}]}
{"substance": "TrwF/VirB9 (R388 T4SS) (natural protein)", "values": [{"measurement": "stoichiometry N", "setting": "[6]", "result": 16}]}
